Test results taken from US20210388087A1 (Chugai, published 2021).
Where a chain is given by its changes, count along the chain named. Names may count otherwise.

B1: CE115HA000 V95K one-arm antibody (antibody, human IgG1, kappa, L234A L235A, N297A, name in Kabat numbering)
heavy: QVQLVESGGGVVQPGRSLRLSCAASGFTFSNAWMHWVRQAPGKGLEWVAQIKAKSNNYATYYAESVKGRFTISRDDSKNSLYLQMNSLKTEDTAVYYCRYKHYGAYYGVDAWGQGTTVTVSSASTKGPSVFPLAPSSKSTSGGTAALGCLVKDYFPEPVTVSWNSGALTSGVHTFPAVLQSSGLYSLSSVVTVPSSSLGTQTYICNVNHKPSNTKVDKKVEPKSCDKTHTCPPCPAPEAAGGPSVFLFPPKPKDTLMISRTPEVTCVVVDVSHEDPEVKFNWYVDGVEVHNAKTKPREEQYASTYRVVSVLTVLHQDWLNGKEYKCKVSNKALPAPIEKTISKAKGQPREPQVYTLPPSRCELTKNQVSLSCAVKGFYPSDIAVEWESNGQPENNYKTTPPVLDSDGSFFLVSKLTVDKSRWQQGNVFSCSVMHEALHNHYTQKSLSLSPDYKDDDDK
chain: EPKSSDKTHTCPPCPAPELLGGPSVFLFPPKPKDTLMISRTPEVTCVVVDVSHEDPEVKFNWYVDGVEVHNAKTKPREEQYNSTYRVVSVLTVLHQDWLNGKEYKCKVSNKALPAPIEKTISKAKGQPREPQVCTLPPSRDELTKNQVSLWCLVKGFYPSDIAVEWESNGQPENNYKTTPPVLDSDGSFFLYSKLTVDKSRWQQGNVFSCSVMHEALHNRYTQKSLSLSP
light: DIVMTQSPLSLPVTPGEPASISCRSSQSLVHSNRNTYLHWYQQKPGQAPRLLIYKVSNRFSGVPDRFSGSGSGTDFTLKISRVEAEDVGVYYCGQGTQVPYTFGQGTKLEIKRTVAAPSVFIFPPSDEQLKSGTASVVCLLNNFYPREAKVQWKVDNALQSGNSQESVTEQDSKDSTYSLSSTLTLSKADYEKHKVYACEVTHQGLSSPVTKSFNRGEC
B2: CE115HA000 V95S one-arm antibody (antibody, human IgG1, kappa, L234A L235A, N297A, name in Kabat numbering)
heavy: B1 heavy with K101S
chain: B1 chain
light: B1 light
B3: CE115HA000 V100cD one-arm antibody (antibody, human IgG1, kappa, L234A L235A, N297A, name in Kabat numbering)
heavy: B1 heavy with K101V, V109D
chain: B1 chain
light: B1 light
B4: CE115HA000 V100cE one-arm antibody (antibody, human IgG1, kappa, L234A L235A, N297A, name in Kabat numbering)
heavy: B1 heavy with K101V, V109E
chain: B1 chain
light: B1 light
B5: CE115HA000 V100cP one-arm antibody (antibody, human IgG1, kappa, L234A L235A, N297A, name in Kabat numbering)
heavy: B1 heavy with K101V, V109P
chain: B1 chain
light: B1 light
B6: CE115HA000 W33A one-arm antibody (antibody, human IgG1, kappa, L234A L235A, N297A, name in Kabat numbering)
heavy: B1 heavy with W33A, K101V
chain: B1 chain
light: B1 light
B7: CE115HA000 W33D one-arm antibody (antibody, human IgG1, kappa, L234A L235A, N297A, name in Kabat numbering)
heavy: B1 heavy with W33D, K101V
chain: B1 chain
light: B1 light
B8: CE115HA000 W33F one-arm antibody (antibody, human IgG1, kappa, L234A L235A, N297A, name in Kabat numbering)
heavy: B1 heavy with W33F, K101V
chain: B1 chain
light: B1 light
B9: CE115HA000 W33H one-arm antibody (antibody, human IgG1, kappa, L234A L235A, N297A, name in Kabat numbering)
heavy: B1 heavy with W33H, K101V
chain: B1 chain
light: B1 light
B10: CE115HA000 W33L one-arm antibody (antibody, human IgG1, kappa, L234A L235A, N297A, name in Kabat numbering)
heavy: B1 heavy with W33L, K101V
chain: B1 chain
light: B1 light
B11: CE115HA000 W33Y one-arm antibody (antibody, human IgG1, kappa, L234A L235A, N297A, name in Kabat numbering)
heavy: B1 heavy with W33Y, K101V
chain: B1 chain
light: B1 light
B12: CE115HA000 Y55D one-arm antibody (antibody, human IgG1, kappa, L234A L235A, N297A, name in Kabat numbering)
heavy: B1 heavy with Y58D, K101V
chain: B1 chain
light: B1 light
B13: CE115HA000 Y55G one-arm antibody (antibody, human IgG1, kappa, L234A L235A, N297A, name in Kabat numbering)
heavy: B1 heavy with Y58G, K101V
chain: B1 chain
light: B1 light
B14: CE115HA000 Y55S one-arm antibody (antibody, human IgG1, kappa, L234A L235A, N297A, name in Kabat numbering)
heavy: B1 heavy with Y58S, K101V
chain: B1 chain
light: B1 light
B15: CE115HA000 Y58A one-arm antibody (antibody, human IgG1, kappa, L234A L235A, N297A, name in Kabat numbering)
heavy: B1 heavy with Y61A, K101V
chain: B1 chain
light: B1 light
B16: CE115HA000 Y58D one-arm antibody (antibody, human IgG1, kappa, L234A L235A, N297A, name in Kabat numbering)
heavy: B1 heavy with Y61D, K101V
chain: B1 chain
light: B1 light
B17: CE115HA000 Y58K one-arm antibody (antibody, human IgG1, kappa, L234A L235A, N297A, name in Kabat numbering)
heavy: B1 heavy with Y61K, K101V
chain: B1 chain
light: B1 light
B18: CE115HA000 Y58L one-arm antibody (antibody, human IgG1, kappa, L234A L235A, N297A, name in Kabat numbering)
heavy: B1 heavy with Y61L, K101V
chain: B1 chain
light: B1 light
B19: CE115HA000 Y58N one-arm antibody (antibody, human IgG1, kappa, L234A L235A, N297A, name in Kabat numbering)
heavy: B1 heavy with Y61N, K101V
chain: B1 chain
light: B1 light
B20: CE115HA000 Y58Q one-arm antibody (antibody, human IgG1, kappa, L234A L235A, N297A, name in Kabat numbering)
heavy: B1 heavy with Y61Q, K101V
chain: B1 chain
light: B1 light
B21: CE115HA000 Y58S one-arm antibody (antibody, human IgG1, kappa, L234A L235A, N297A, name in Kabat numbering)
heavy: B1 heavy with Y61S, K101V
chain: B1 chain
light: B1 light
B22: CE115HA000 Y59A one-arm antibody (antibody, human IgG1, kappa, L234A L235A, N297A, name in Kabat numbering)
heavy: B1 heavy with Y62A, K101V
chain: B1 chain
light: B1 light
B23: CE115HA000 Y59D one-arm antibody (antibody, human IgG1, kappa, L234A L235A, N297A, name in Kabat numbering)
heavy: B1 heavy with Y62D, K101V
chain: B1 chain
light: B1 light

These binders were tested against T1, CD3 epsilon homodimer protein (UniProt P07766 23-126) (assay: SPR (Biacore T200), CD3 epsilon homodimer on CM4 chip, one-arm antibody as analyte, 25 C;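 further: homodimer attached to the sensor surface via amine coupling, HBS-EP+ used as running buffer during binding runs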).
T1 construct: immobilized on Sensor chip CM4 by amine coupling; also called CD3 (CD3 epsilon)
T1 sequence (P07766 23-126): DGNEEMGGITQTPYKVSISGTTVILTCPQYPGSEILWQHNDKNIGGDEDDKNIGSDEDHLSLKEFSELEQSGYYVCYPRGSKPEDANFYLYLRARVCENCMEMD

Binder	ratio of amounts bound (altered form / CE115HA000)
B1	0.64
B2	0.22
B3	0.44
B4	0.46
B5	0.2
B6	0.1
B7	0.1
B8	0.65
B9	0.13
B10	0.1
B11	0.66
B12	0.45
B13	0.55
B14	0.26
B15	0.22
B16	0.11
B17	0.3
B18	0.27
B19	0.33
B20	0.19
B21	0.18
B22	0.85
B23	0.7
